Tests used:
[1] = molecular target: HRD1 (mouse) (mouse (endogenous in MEFs and P0 liver)) (UniProt Q9DBY1); assay: co-IP; reciprocal IP of endogenous HRD1 (anti-HRD1, Protein A agarose) from MEF lysates; same lysis buffer; immunoblot
[2] = molecular target: SEL1L S658P (mouse knock-in) (mouse (endogenous in MEFs and P0 liver)) (UniProt Q9Z2G6); assay: co-IP; IP of endogenous SEL1L from P0 mouse liver lysates (WT, Sel1L^S658P, Sel1L^L709P); same lysis buffer; DERL2 eluted with 0.1 M glycine pH 2.5; immunoblot with quantification
[3] = molecular target: SEL1L S658P (mouse knock-in) (mouse (endogenous in MEFs and P0 liver)) (UniProt Q9Z2G6); assay: co-IP; IP of endogenous SEL1L (1 ug anti-SEL1L, Protein A agarose, overnight 4 C) from MEF lysates (WT, Sel1L^S658P, Sel1L^L709P, Sel1L^P699T, Sel1L^ERCre KO); 150 mM NaCl, 25 mM Tris-HCl pH 7.5, 0.2% NP-40, 0.1% Triton X-100; immunoblot, prey band normalised to bait

“SEL1L S658P (mouse knock-in) (from UniProt Q9Z2G6 22-790) (natural protein)” showed a reduction of SEL1L–HRD1 binding against WT [1] of 60%.

With “HRD1 (mouse) (from UniProt Q9DBY1 1-612) (enzyme)” the reduction of HRD1 association against WT [2] was 80% and the reduction of HRD1 binding against WT [3] was 60%.

B1: DERL2 (mouse) (natural protein)
chain: MAYQSLRLEYLQIPPVSRAYTTACVLTTAAVQLELITPFQLYFNPELIFKHFQIWRLITNFLFFGPVGFNFLFNMIFLYRYCRMLEEGSFRGRTADFVFMFLFGGFLMTLFGLFVSLVFLGQAFTIMLVYVWSRRNPYVRMNFFGLLNFQAPFLPWVLMGFSLLLGNSIIVDLLGIAVGHIYFFLEDIFPNQPGGIRILKTPSILRTIFDTPDEDPNYNPLPEERPGGFAWGEGQRLGG
Molecule B1 has a decrease of DERL2 interaction against WT [2] of 60%.

From PMC12891039
